Test results reported in US8632988.

Columns and labels:
mouse hemoglobin (mouse) = mouse hemoglobin (mouse) (UniProt P01942); experiment: cell-based or functional assay
human hemoglobin (human) = human hemoglobin (human) (UniProt P69905); experiment: cell-based or functional assay
Chain of UniProt P69905 (P69905 2-142, chain 1 of 2): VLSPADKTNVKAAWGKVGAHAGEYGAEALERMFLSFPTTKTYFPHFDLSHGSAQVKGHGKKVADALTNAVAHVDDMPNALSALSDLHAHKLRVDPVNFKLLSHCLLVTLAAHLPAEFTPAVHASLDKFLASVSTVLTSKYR
Chain of UniProt P69905 (P68871 2-147, chain 2 of 2, further chain): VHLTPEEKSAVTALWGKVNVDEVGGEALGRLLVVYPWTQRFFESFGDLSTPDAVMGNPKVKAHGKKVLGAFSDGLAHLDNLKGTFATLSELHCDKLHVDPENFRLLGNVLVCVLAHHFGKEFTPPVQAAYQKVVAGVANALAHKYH

Chain of UniProt P01942 (P01942 2-142, chain 1 of 2): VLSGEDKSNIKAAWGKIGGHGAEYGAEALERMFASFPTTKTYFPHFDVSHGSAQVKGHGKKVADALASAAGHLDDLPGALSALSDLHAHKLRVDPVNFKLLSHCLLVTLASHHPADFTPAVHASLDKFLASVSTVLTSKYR
Chain of UniProt P01942 (P02088 2-147, chain 2 of 2, further chain): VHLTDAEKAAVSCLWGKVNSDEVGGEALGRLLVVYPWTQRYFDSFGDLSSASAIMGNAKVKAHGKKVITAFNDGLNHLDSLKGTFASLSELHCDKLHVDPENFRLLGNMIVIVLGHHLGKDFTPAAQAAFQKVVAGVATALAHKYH

IsdB on the cell wall of iron-starved S. aureus strain Newman (from UniProt A6QG30 41-613) (receptor)
time at which growth appears around hemoglobin disks on iron-deficient solid medium (mouse hemoglobin (mouse)): 72 h
time at which growth appears around hemoglobin disks on iron-deficient solid medium (human hemoglobin (human)): 24 h
